{
  "source": "patent US20120210456A1",
  "about": "(MENDEL BIOTECHNOLOGY, published 2012)",
  "target": "T1, SALT TOLERANCE HOMOLOG2 (STH2) (Arabidopsis thaliana, UniProt Q9LQZ7 1-331, limits assumed)",
  "T1 construct": "also called G1482",
  "T1 sequence": "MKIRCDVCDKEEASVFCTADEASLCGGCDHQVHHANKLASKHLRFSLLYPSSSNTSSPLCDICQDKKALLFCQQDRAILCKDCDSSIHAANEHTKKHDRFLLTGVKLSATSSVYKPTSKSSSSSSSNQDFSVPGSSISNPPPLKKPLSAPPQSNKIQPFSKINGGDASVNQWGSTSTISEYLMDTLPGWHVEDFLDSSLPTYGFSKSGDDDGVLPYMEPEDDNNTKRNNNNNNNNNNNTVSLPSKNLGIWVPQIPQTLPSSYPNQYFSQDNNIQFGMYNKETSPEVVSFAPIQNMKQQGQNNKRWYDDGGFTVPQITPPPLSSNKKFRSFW",
  "experiment": "in vitro and protoplast based studies (methods not described)",
  "data": [
    {"binder": "G1988 (other, also called B-box zinc finger transcription factor G1988) MVSFCELCGAEADLHCAADSAFLCRSCDAKFHASNFLFARHFRRVICPNCKSLTQNFVSGPLLPWPPRTTCCSESSSSSCCSSLDCVSSSELSSTTRDVNRARGRENRVNAKAVAVTVADGIFVNWCGKLGLNRDLTNAVVSYASLALAVETRPRATKRVFLAAAFWFGVKNTTTWQNLKKVEDVTGVSAGMIRAVESKLARAMTQQLRRWRVDSEEGWAENDNV", "values": [
      {"measurement": "binding result", "value": "binds"}
    ]}
  ]
}
